Test results taken from patent US20200283532A1 (CANCER RESEARCH TECHNOLOGY, published 2020).

How the values were obtained:
Assay in all cases: flow cytometry, A375Ppuro cells
[1] = biological target: Peptide (16) AcHN-NK(Biotin)…-OH
[2] = biological target: Peptide (18) AcHN-NK(Biotin)…-NH2
[3] = biological target: Peptide (22) DTPA-NK(Biotin)…-OH
[4] = biological target: Peptide (23) DTPA-GNK(Biotin)…-OH
[5] = biological target: Peptide (24) DTPA-NK(Biotin)…-NH2
[6] = biological target: Peptide (25) DTPA-nK(Biotin)…-OH
[7] = biological target: Peptide (26) DTPA-nK(Biotin)…t-OH

Measured: binding result

B1: integrin αvβ5 (receptor)
chain 1: FNLDVDSPAEYSGPEGSYFGFAVDFFVPSASSRMFLLVGAPKANTTQPGIVEGGQVLKCDWSSTRRCQPIEFDATGNRDYAKDDPLEFKSHQWFGASVRSKQDKILACAPLYHWRTEMKQEREPVGTCFLQDGTKTVEYAPCRSQDIDADGQGFCQGGFSIDFTKADRVLLGGPGSFYWQGQLISDQVAEIVSKYDPNVYSIKYNNQLATRTAQAIFDDSYLGYSVAVGDFNGDGIDDFVSGVPRAARTLGMVYIYDGKNMSSLYNFTGEQMAAYFGFSVAATDINGDDYADVFIGAPLFMDRGSDGKLQEVGQVSVSLQRASGDFQTTKLNGFEVFARFGSAIAPLGDLDQDGFNDIAIAAPYGGEDKKGIVYIFNGRSTGLNAVPSQILEGQWAARSMPPSFGYSMKGATDIDKNGYPDLIVGAFGVDRAILYRARPVITVNAGLEVYPSILNQDNKTCSLPGTALKVSCFNVRFCLKADGKGVLPRKLNFQVELLLDKLKQKGAIRRALFLYSRSPSHSKNMTISRGGLMQCEELIAYLRDESEFRDKLTPITIFMEYRLDYRTAADTTGLQPILNQFTPANISRQAHILLDCGEDNVCKPKLEVSVDSDQKKIYIGDDNPLTLIVKAQNQGEGAYEAELIVSIPLQADFIGVVRNNEALARLSCAFKTENQTRQVVCDLGNPMKAGTQLLAGLRFSVHQQSEMDTSVKFDLQIQSSNLFDKVSPVVSHKVDLAVLAAVEIRGVSSPDHVFLPIPNWEHKENPETEEDVGPVVQHIYELRNNGPSSFSKAMLHLQWPYKYNNNTLLYILHYDIDGPMNCTSDMEINPLRIKISSLQTTEKNDTVAGQGERDHLITKRDLALSEGDIHTLGCGVAQCLKIVCQVGRLDRGKSAILYVKSLLWTETFMNKENQNHSYSLKSSASFNVIEFPYKNLPIEDITNSTLVTTNVTWGIQPAPMPVPVWVIILAVLAGLLLLAVLVFVMYRMGFFKRVRPPQEEQEREQLQPHENGEGNSET
chain 2: GLNICTSGSATSCEECLLIHPKCAWCSKEDFGSPRSITSRCDLRANLVKNGCGGEIESPASSFHVLRSLPLSSKGSGSAGWDVIQMTPQEIAVNLRPGDKTTFQLQVRQVEDYPVDLYYLMDLSLSMKDDLDNIRSLGTKLAEEMRKLTSNFRLGFGSFVDKDISPFSYTAPRYQTNPCIGYKLFPNCVPSFGFRHLLPLTDRVDSFNEEVRKQRVSRNRDAPEGGFDAVLQAAVCKEKIGWRKDALHLLVFTTDDVPHIALDGKLGGLVQPHDGQCHLNEANEYTASNQMDYPSLALLGEKLAENNINLIFAVTKNHYMLYKNFTALIPGTTVEILDGDSKNIIQLIINAYNSIRSKVELSVWDQPEDLNLFFTATCQDGVSYPGQRKCEGLKIGDTASFEVSLEARSCPSRHTEHVFALRPVGFRDSLEVGVTYNCTCGCSVGLEPNSARCNGSGTYVCGLCECSPGYLGTRCECQDGENQSVYQNLCREAEGKPLCSGRGDCSCNQCSCFESEFGKIYGPFCECDNFSCARNKGVLCSGHGECHCGECKCHAGYIGDNCNCSTDISTCRGRDGQICSERGHCLCGQCQCTEPGAFGEMCEKCPTCPDACSTKRDCVECLLLHSGKPDNQTCHSLCRDEVITWVDTIVKDDQEAVLCFYKTAKDCVMMFTYVELPSGKSNLTVLREPECGNTPNAMTILLAVVGSILLVGLALLAIWKLLVTIHDRREFAKFQSERSRARYEMASNPLYRKPISTHTVDFTFNKFNKSYNGTVD
notes: whole, on cells
no binding (tested: 1000 nM): all assays above

B2: integrin αvβ8 (receptor)
chain 1: FNLDVDSPAEYSGPEGSYFGFAVDFFVPSASSRMFLLVGAPKANTTQPGIVEGGQVLKCDWSSTRRCQPIEFDATGNRDYAKDDPLEFKSHQWFGASVRSKQDKILACAPLYHWRTEMKQEREPVGTCFLQDGTKTVEYAPCRSQDIDADGQGFCQGGFSIDFTKADRVLLGGPGSFYWQGQLISDQVAEIVSKYDPNVYSIKYNNQLATRTAQAIFDDSYLGYSVAVGDFNGDGIDDFVSGVPRAARTLGMVYIYDGKNMSSLYNFTGEQMAAYFGFSVAATDINGDDYADVFIGAPLFMDRGSDGKLQEVGQVSVSLQRASGDFQTTKLNGFEVFARFGSAIAPLGDLDQDGFNDIAIAAPYGGEDKKGIVYIFNGRSTGLNAVPSQILEGQWAARSMPPSFGYSMKGATDIDKNGYPDLIVGAFGVDRAILYRARPVITVNAGLEVYPSILNQDNKTCSLPGTALKVSCFNVRFCLKADGKGVLPRKLNFQVELLLDKLKQKGAIRRALFLYSRSPSHSKNMTISRGGLMQCEELIAYLRDESEFRDKLTPITIFMEYRLDYRTAADTTGLQPILNQFTPANISRQAHILLDCGEDNVCKPKLEVSVDSDQKKIYIGDDNPLTLIVKAQNQGEGAYEAELIVSIPLQADFIGVVRNNEALARLSCAFKTENQTRQVVCDLGNPMKAGTQLLAGLRFSVHQQSEMDTSVKFDLQIQSSNLFDKVSPVVSHKVDLAVLAAVEIRGVSSPDHVFLPIPNWEHKENPETEEDVGPVVQHIYELRNNGPSSFSKAMLHLQWPYKYNNNTLLYILHYDIDGPMNCTSDMEINPLRIKISSLQTTEKNDTVAGQGERDHLITKRDLALSEGDIHTLGCGVAQCLKIVCQVGRLDRGKSAILYVKSLLWTETFMNKENQNHSYSLKSSASFNVIEFPYKNLPIEDITNSTLVTTNVTWGIQPAPMPVPVWVIILAVLAGLLLLAVLVFVMYRMGFFKRVRPPQEEQEREQLQPHENGEGNSET
chain 2: EDNRCASSNAASCARCLALGPECGWCVQEDFISGGSRSERCDIVSNLISKGCSVDSIEYPSVHVIIPTENEINTQVTPGEVSIQLRPGAEANFMLKVHPLKKYPVDLYYLVDVSASMHNNIEKLNSVGNDLSRKMAFFSRDFRLGFGSYVDKTVSPYISIHPERIHNQCSDYNLDCMPPHGYIHVLSLTENITEFEKAVHRQKISGNIDTPEGGFDAMLQAAVCESHIGWRKEAKRLLLVMTDQTSHLALDSKLAGIVVPNDGNCHLKNNVYVKSTTMEHPSLGQLSEKLIDNNINVIFAVQGKQFHWYKDLLPLLPGTIAGEIESKAANLNNLVVEAYQKLISEVKVQVENQVQGIYFNITAICPDGSRKPGMEGCRNVTSNDEVLFNVTVTMKKCDVTGGKNYAIIKPIGFNETAKIHIHRNCSCQCEDNRGPKGKCVDETFLDSKCFQCDENKCHFDEDQFSSESCKSHKDQPVCSGRGVCVCGKCSCHKIKLGKVYGKYCEKDDFSCPYHHGNLCAGHGECEAGRCQCFSGWEGDRCQCPSAAAQHCVNSKGQVCSGRGTCVCGRCECTDPRSIGRFCEHCPTCYTACKENWNCMQCLHPHNLSQAILDQCKTSCALMEQQHYVDQTSECFSSPSYLRIFFIIFIVTFLIGLLKVLIIRQVILQWNSNKIKSSSDYRVSASKKDKLILQSVCTRAVTYRREKPEEIKMDISKLNAHETFRCNF
notes: whole, on cells
no binding (tested: 1000 nM): all assays above
